Assay results from patent US20190330298A1 (WORG PHARMACEUTICALS ZHEJIANG, published 2019).

Target: T1, HLA-DRB1*0301 molecule (HLA-DR3 MHC class II of DR3tg mice) (human)
T1 construct: whole, on cells; MHC class II expressed by DR3tg mice (no mouse MHC II); the responding T cells came from DR3 mice; also called MHC II
Assay: in vivo presentation test in DR3tg mice; binding inferred from IFN-γ response of peptide-specific T cells to isolated CD11c+ cells
Procedure: DR3tg or DR2tg mice were injected with 100 μg of peptide in 100 μl PBS subcutaneously (s.c.) in the flank. Control animals received a s.c. injection of 100 μl PBS. After 2 hours, spleens were harvested and single-cell suspensions were made. CD11c⁺ cells were positively selected using CD11c microbeads according to the manufacturer's instructions (Miltenyi Biotec, Bergisch Gladbach, Germany). Average purities of >92% were reached. 5×10⁴ CD11c⁺ cells were co-cultured with 5×10⁴ CD4⁺ cells in round bottom 96-well plates in X-vivo 15 medium (supplemented with 2 mM L-glutamine, 50 U/mL penicillin and 50 U/mL streptomycin; Lonza). […] After 48 hours, supernatant of these co-cultures was collected and CD4⁺ T cell activation was analysed by IFN-γ ELISA (R&D Systems, Abingdon, UK). In a parallel experiment, CD4⁺ T cell responses towards peptide added in vitro were assessed to make sure the T cells recognize the peptides presented by the CD11c⁺ cells.
In FIG. 15 the ability of HIP-115NE3 (insoluble peptide) and that of its soluble version, HIP-115NE3-KKK, to be picked up and presented by MHC II molecules present on dendritic cells (DC) upon sc. injection in an in vivo setting (DR3tg mice) was compared. […] T cell activity response was measured by production of IFN-γ. […]

binding result: binds
B1: HIP-115NE3-KKK (peptide)
peptide: H-KKKVIFKKISRDKSVTIYLGKKK-NH2
notes: Synthetic; HIP-115NE3 with KKK at both ends
